What is called EC50 is the concentration at which the effect is half-maximal. Lower therefore signals an effect from little substance. Usually Kd stands for the constant that tells how readily two partners part at equilibrium. Lower therefore signals tighter binding.

Sequences and labels used below:
B1: BSMUC16/CD3-001 (bispecific antibody)
chain 1: QVQLVESGGGLVKPGGSLRLSCAASGFTFSNYYMSWVRQAPGKGLEWISYISGRGSTIFYADSVKGRITISRDNAKNSLFLQMNSLRAEDTAVYFCVKDRGGYSPYWGQGTLVTVSS
chain 2: EVQLVESGGGLVQPGRSLRLSCAASGFTFDDYSMHWVRQAPGKGLEWVSGISWNSGSKGYADSVKGRFTISRDNAKNSLYLQMNSLRAEDTALYYCAKYGSGYGKFYHYGLDVWGQGTTVTVSS
chain 3: not shown
B2: BSMUC16/CD3-002 (bispecific antibody)
chain 1: B1 chain 1
chain 2: B1 chain 2 with K58I, Y99D, H108Y, L111M
chain 3: not shown
B3: BSPSMA/CD3-200 (bispecific antibody)
chain 1: QVQLVESGGGVVQPGRSLRLSCAASGFTFSSYGMHWVRQAPGKGLEWVAVISYAGNNKYYADSVKGRFTVSRDNSKKTLYLQMNSLRSEDTAVYYCAKDSYYDFLTDPDVLDIWGQGTMVTVSS
chain 2: B1 chain 2 with S33A, K58I, Y99D, K105Y, H108Y, L111M
chain 3: DIQMTQSPSSLSASVGDSVTITCRASQSINNYLNWYQQKPGKAPKLLIYTASSLLSGVPSRFSGSGSGTDFTLTISGLHPEDFATYFCQQSFSTPPITFGQGTRLDIK
B4: BSPSMA/CD3-1800 (bispecific antibody)
chain 1: B3 chain 1
chain 2: B1 chain 2 with K58I, Y99D, H108Y
chain 3: B3 chain 3
B5: BSPSMA/CD3-400 (bispecific antibody)
chain 1: B3 chain 1
chain 2: B1 chain 2 with S33A, K58I, Y99D, H108Y, L111M
chain 3: B3 chain 3
B6: BSPSMA/CD3-300 (bispecific antibody)
chain 1: B3 chain 1
chain 2: B1 chain 2 with K58I, Y99D, K105Y, H108Y, L111M
chain 3: B3 chain 3
B7: BSPSMA/CD3-004 (bispecific antibody)
chain 1: B3 chain 1
chain 2: B1 chain 2 with K58I, Y99D, H108Y, L111M
chain 3: B3 chain 3
B8: BSPSMA/CD3-1200 (bispecific antibody)
chain 1: B3 chain 1
chain 2: B1 chain 2 with K58I, Y99D
chain 3: B3 chain 3
B9: BSPSMA/CD3-1000 (bispecific antibody)
chain 1: B3 chain 1
chain 2: B1 chain 2 with H108Y
chain 3: B3 chain 3
B10: BSPSMA/CD3-2100 (bispecific antibody)
chain 1: B3 chain 1
chain 2: B1 chain 2 with Y99D, H108Y, L111M
chain 3: B3 chain 3
B11: BSPSMA/CD3-1500 (bispecific antibody)
chain 1: B3 chain 1
chain 2: B1 chain 2 with Y99D, H108Y
chain 3: B3 chain 3
B12: BSPSMA/CD3-1300 (bispecific antibody)
chain 1: B3 chain 1
chain 2: B1 chain 2 with K58I, H108Y
chain 3: B3 chain 3
B13: BSPSMA/CD3-1100 (bispecific antibody)
chain 1: B3 chain 1
chain 2: B1 chain 2 with L111M
chain 3: B3 chain 3
B14: BSPSMA/CD3-800 (bispecific antibody)
chain 1: B3 chain 1
chain 2: B1 chain 2 with K58I
chain 3: B3 chain 3
B15: BSPSMA/CD3-005 (bispecific antibody)
chain 1: B3 chain 1
chain 2: B1 chain 2 with K58I, H108Y, L111M
chain 3: B3 chain 3
B16: BSPSMA/CD3-1400 (bispecific antibody)
chain 1: B3 chain 1
chain 2: B1 chain 2 with K58I, L111M
chain 3: B3 chain 3
B17: BSPSMA/CD3-1700 (bispecific antibody)
chain 1: B3 chain 1
chain 2: B1 chain 2 with H108Y, L111M
chain 3: B3 chain 3
B18: BSPSMA/CD3-1600 (bispecific antibody)
chain 1: B3 chain 1
chain 2: B1 chain 2 with Y99D, L111M
chain 3: B3 chain 3
B19: BSPSMA/CD3-1900 (bispecific antibody)
chain 1: B3 chain 1
chain 2: B1 chain 2 with K58I, Y99D, L111M
chain 3: B3 chain 3
B20: BSPSMA/CD3-900 (bispecific antibody)
chain 1: B3 chain 1
chain 2: B1 chain 2 with Y99D
chain 3: B3 chain 3

Numbering of substitutions follows the chain as printed.

T2 sequence (P07766 23-207 limits assumed, chain 1 of 2): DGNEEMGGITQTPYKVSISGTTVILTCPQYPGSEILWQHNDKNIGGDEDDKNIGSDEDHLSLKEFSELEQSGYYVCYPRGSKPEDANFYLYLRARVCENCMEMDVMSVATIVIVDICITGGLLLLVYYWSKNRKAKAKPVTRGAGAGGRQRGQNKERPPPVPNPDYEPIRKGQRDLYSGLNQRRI
T2 sequence (P04234 22-171 limits assumed, chain 2 of 2): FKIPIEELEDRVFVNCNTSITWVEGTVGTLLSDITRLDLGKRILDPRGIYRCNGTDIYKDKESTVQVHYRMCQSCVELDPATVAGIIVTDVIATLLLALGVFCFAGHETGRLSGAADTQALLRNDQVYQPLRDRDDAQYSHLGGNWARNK
T3 sequence (P07766 23-126, stated change not applied, chain 1 of 2): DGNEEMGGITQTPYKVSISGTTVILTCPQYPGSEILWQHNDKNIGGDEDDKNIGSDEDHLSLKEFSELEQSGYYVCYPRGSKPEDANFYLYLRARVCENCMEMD
T3 sequence (P04234 22-105, stated change not applied, chain 2 of 2, further chain): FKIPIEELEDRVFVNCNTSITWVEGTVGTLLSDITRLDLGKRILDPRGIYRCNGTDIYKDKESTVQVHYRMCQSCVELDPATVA

The first assay addresses T1, human MUC16 on OVCAR3 cells (human).
T1 construct: Endogenous MUC16 of the OVCAR3 cell line; also called Mucin 16
The assay is described as follows: FACS, OVCAR3 (MUC16+) cells. (In general: A flow cytometer gives signals particle by particle.)
Consider B1, for which the 50% effective concentration (EC50) is 1.2 nM. With B2, a half-maximal response (EC50) required 2.69 nM.

The next assay concerns the target T2, human CD3 (cell surface-expressed) (human, UniProt P07766 23-207; P04234 22-171).
T2 construct: CD3 as carried by Jurkat cells or human T cells (part of the TCR complex, which also holds CD3-gamma and zeta); also called human CD3 expressing Jurkat cells; JURKAT
The assay is described as follows: FACS, Jurkat cells.
Molecule B1 yielded an EC50 of 3.21 nM.

The next assay concerns the target T3, soluble heterodimeric hCD3ε/δ.mFc protein (human).
T3 construct: also called soluble human CD3; human CD3 heterodimeric protein
Nature of the assay: SPR 37 C, antigen-capture format.
Molecule B3 returned a Kd of more than 500 nM. Consider B4, for which the Kd is more than 500 nM.

Molecule B5 had a Kd of more than 500 nM.

Molecule B6 registered a Kd of more than 500 nM. On the same count and under the same terms, the value for B7 was more than 500 nM.

The target of a further assay is T3, soluble heterodimeric hCD3ε/δ.mFc …. The assay is described as follows: SPR 37 C, antigen-capture format. This is another data set of the same source.
For B8, the T½ worked out at 4.7 min.

Molecule B9 showed a T½ of 1.8 min. Molecule B10 showed a T½ of 4.9 min.

The molecule B11 came in with a T½ of 1.9 min. In turn, B12 came in with a T½ of 4.7 min. Same read-out and setting: the value for B13 was 11.3 min.

As for B14, the T½ came to 10 min. Turning to B15, the T½ turned out to be 2 min. Still for that read-out and setting: the result for B16 reads 3.5 min; that for B17, 3.8 min; that for B18, 4.7 min.

Consider B19, for which the T½ was 2.3 min. For the molecule B20, the T½ stood at 2.3 min.

The next assay concerns the target T1, human MUC16 on OVCAR3 cells. The assay is described as follows: cell-based or functional assay.
As for B1, the “OVCAR3 cell depletion EC50” value stood at 0.0224 nM.

Regarding B2, the “OVCAR3 cell depletion EC50” value was determined as 0.0306 nM.

Another assay concerns the target T2, human CD3 (cell surface-expressed). Nature of the assay: cell-based or functional assay.
As for B1, the “T cell activation EC50” value stood at 0.00588 nM. Consider B2, for which the “T cell activation EC50” value was determined as 0.0101 nM.

For the origin of these results see US20210253701A1 (Regeneron, published 2021).
